From patent publication US20130143825A1, “COMPOUNDS FOR USE IN THE TREATMENT OF DISEASES BASED ON THE EXPRESSION OF TOXIC TRANSCRIPTS” (UNIVERSITAT DE VALENCIA, priority 2010, published 2013) come the findings set out here.

Broadly, the IC50 is the concentration at which inhibition is half-maximal.

Series [1] relates to GMR-Gal4 UAS-CTG(480) flies. In words: Endogenous expression of p10-derived peptides (Gal4/UAS), rough eye phenotype. The series is classed as in vivo, Drosophila. Particulars: for eye phenotype on co-expression with CTG(480): 25° C.; for phenotype of expression of peptide by itself: 25° C. and 29° C., without CTG(480); for offspring of crossing with GMR-Gal4 UAS-CTG(480)/CyO: 29° C.; for transgenic lines assayed that modified the phenotype of GMR-Gal4 UAS-CTG(480) flies: in vivo. From the text:
Thus, three different transgenes were designed, with SEQ ID NO: 17-19 (p17-p19), which encoded different peptides, all based on sequence SEQ ID NO: 10 corresponding to p10 (FIG. 9), taking into consideration the codon usage bias in Drosophila (i.e. favouring the use of G, and in particular C, in the synonymous sites; Powell & Moriyama, 1997) and adding an initial Methionine, as well as three spacer Glycines, to sequence SEQ ID NO: 10. Moreover, upstream from the […] initiation codon, 21 nucleotides of the 5′UTR end of the act5C gene of Drosophila which included the Kozak sequence were added, in order to enhance the expression of the transgenes.
p17 contained the direct sequence of the peptide of SEQ ID NO: 10. As discussed above, the peptides in the hexapeptide chemical library are composed of D-amino acids. The D-forms (dextrogyre) of amino acids are stereoisomers of the L-forms (levogyres) and only L-amino acids are synthesised in the cells and incorporated into proteins. Consequently, if the arrangement of the lateral chains of p10 is important for the function thereof, the latter would be lost when p17 is synthesised by Drosophila from L-aa. For this reason, it was decided to generate construct p18, wherein the peptide sequence of SEQ ID NO: 10 was inverted, leading to a retro-inverse peptide (Chorev & Goodman, 1995; P. M. Fischer, 2003). At the time when these transgenes were generated, the smallest constructs described in the literature encoded peptides with more than 20 amino acids, which is more than twice the size of peptides p17 and p18 (which have only ten amino acids). For this reason, construct p19 was generated, which combined the constructs of peptides p17 and p18, leading to a peptide with 19 amino acids. The three constructs were microinjected in the precursors of the germinal line of Drosophila embryos, leading to 10 lines of transgenic flies for each transgene.
(§1) The transgenic flies obtained were crossed with the GMR-Gal4 UAS-CTG(480)/CyO and Mhc-Gal4 UAS-CTG(480)/TM6b recombinant fly lines generated during this invention, which directed the expression of the CTG repeats in the eye and the muscle, respectively. As in the case of the sev-Gal4 UAS-CTG(480)/+ flies, the adult GMR-Gal4 UAS-CTG(480)/UAS-GFP flies presented a strong rough eye phenotype. […] However, the opposite phenomenon occurred at 25° C. and at 29° C. […] Given that changes in temperature affect the expression of the CTG(480) transgenes and peptides p17-p19 in a different manner, since the latter are inserted in different regions of the genome, there may be a relation between the quantity of peptide and of repeats that must be reached, whereafter p10 becomes toxic.

The subject of series [2] is Mhc-Gal4 UAS-CTG(480) flies. In words: Endogenous expression of p10-derived peptides in the IFMs. The series is classed as in vivo, Drosophila. The following applies: Mhc-Gal4 line at 25° C., recently ecloded adults. As for the experimental part:
as §1
This confirms the effect of p10 on CTG(480). Once again, only those lines that carried the p18 and p19 transgenes modified the phenotype.

The target of series [3] is T1, MblZF (Muscleblind zinc fingers) (UniProt O16011).
T1 sequence: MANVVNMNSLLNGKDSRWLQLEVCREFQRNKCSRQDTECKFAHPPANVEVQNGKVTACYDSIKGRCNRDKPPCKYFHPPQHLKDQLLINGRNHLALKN
In words: FP. The following applies: theoretical IC50 from binding curve; 6 nM RNA; competed by unlabelled (CUG)23.

In series [4] the test system is T2, peptide p10 (ppyawe hexapeptide, D-amino acids) (synthetic).
T2 sequence: PPYAWE
Particulars: one G replaced by 2-aminopurine; 2-AP fluorescence increase (hairpin opening) at 100 uM; none at RNA:peptide up to 1:5.

Series [5] deals with the molecule itself. In words: molecular exclusion chromatography; single elution peak at 13.4 KDa, equivalent to the monomer. As for the experimental part:
In order to verify that the purified protein was in its native conformation following the purification, its circular dichroism (CD) spectrum was analysed. Circular dichroism is an electronic absorption spectroscopy technique based on the differential absorption by the molecule of right- and left-circularly polarised light beams. Since different proteins have a different circular dichroism spectrum, this technique makes it possible to identify the conformation of different molecules by comparison with a theoretical spectrum (FIG. 18B). The circular dichroism spectrum obtained for MblZF in phosphate buffer is similar to that described for the zinc fingers of MBNL1, with a pronounced peak at 203 nm, which denoted a lack of structure, and a weak peak at 220 nm, which indicates an alpha helix (FIG. 18A). In the case of MblZF, this pattern was conserved, although the values were slightly shifted to the right (FIG. 18C). Finally, in order to determine whether MblZF was found as a monomer in solution or forming complexes, we performed molecular exclusion chromatography (FIG. 18D). Molecular exclusion chromatography is a column chromatography method whereby the molecules separate as a function of their molecular weight. The exclusion volume obtained for MblZF corresponded to a molecular weight of 13.4 KDa, equivalent to the size of the protein in monomer form.

For a further series, the system named is FAM-(CUG)23 RNA. As to the kind of experiment: Fluorescence polarisation assay. The series is classed as binding. From the text:
Amongst the different techniques for the in vitro study of interactions between proteins and nucleic acids, fluorescence polarisation (FP) assays are worth highlighting for their rapidity and sensitivity. This technique is based on the changes in rotational movement of fluorescent molecules in suspension. Thus, when a polarised light beam excites a fluorophore conjugated to a small molecule, the latter undergoes rotational diffusion faster than the time needed for the emission of light, which results in a random arrangement of the molecule at the time of fluorescence emission (depolarisation). However, rotation of the molecule becomes slower when the viscosity of the medium or the molecular volume change, increasing the polarisation of the light emitted. Thus, by measuring the polarisation changes in a molecule, it is possible to detect the binding between the latter and another molecule added to the medium (FIG. 19). In the present invention, these molecules were p10, MblZF and 23 CUG repeats conjugated to the carboxyfluorescein fluorophore (FAM-(CUG)23).
In order to prepare the FP experiment, in the first place two different concentrations of the FAM-(CUG)23 RNA (6 nM and 60 nM) were assayed. […] The interaction observed between MblZF and FAM-(CUG)23 was proportional to the quantity of protein (FIG. 20B). […]
Background: Polarisation of emitted light reports the rotation of a fluorescent probe.

A further series relates to CUG60 RNA. In words: Circular dichroism of CUG60 RNA. The series is classed as binding. The following applies: RNA 1 μM; p10 0.1-20 μM; MblZF 1 and 1.5 μM; ppyawa 0.5 and 1 μM; payawe 1 μM. As for the experimental part: However, this effect was not reverted when the RNA was incubated jointly with MblZF and p10, regardless of the order of addition (C).
In order to study possible changes in the secondary structure of RNA induced by p10, in the first place we performed a circular dichroism (CD) experiment, using an RNA with unlabelled CUG repeats (CUG60). The circular dichroism of nucleic acids is caused by the stacking of the bases that make up the sequence thereof. Consequently, when a molecule binds to RNA, affecting the structure thereof, a change is detected in its CD spectrum. […] When we incubated the RNA with increasing concentrations of the peptide of SEQ ID NO: 10 (0.1 μM, 0.5 μM, 1 μM, 10 μM and 20 μM), a similar effect was observed (FIG. 27B). During the readings, the RNA was kept in the cuvette inside the dichrograph at 10° C. Throughout the 3 hours of each experiment, it was possible for the RNA to have been degraded; this would explain the decrease in the intensity of the signal observed. In order to rule out this possibility, the CD spectrum of CUG60 RNA was measured at times 0 and 3 h, having kept the CUG60 RNA at 10° C. at all times.
For orientation: Circular dichroism is the unequal absorption of left and right circularly polarised light.

Another series deals with 2-AP-(CUG)23 RNA. As to the kind of experiment: 2-aminopurine fluorescence assay (hairpin opening). The series is classed as biochemical. Particulars: low concentrations, RNA:protein ≦1:5. As for the experimental part: Measurements of the fluorescence emitted (Y-axis), measured as relative fluorescence units (RFU), by 2-aminopurine in a (CUG)23 RNA (1 μM) in the presence of MblZF (0.1 μM, 1 μM, 2 μM and 5 μM) (A) or p10 (0.1 μM, 1 μM, 2 μM, 5 μM and 100 μM) (B), relative to the fluorescence emitted by the free RNA. p10 caused a 2.9-increase in the fluorescence of 2-AP at 100 μM, which indicates a change towards single-stranded. This effect was not observed when incubating the RNA with DMSO, or with the alanine scanning peptides with sequences: ppyawa and payawe (C).
In order to confirm whether said changes cause a loss of the hairpin loop structure, an experiment was performed using an RNA composed of 23 CUG repeats, wherein a guanine had been substituted with its analogue 2-aminopurine (2-AP-(CUG)23). When 2-AP is in a single-stranded environment, it emits fluorescence at 375 nm. […] However, upon increasing the concentration of p10 to 100 μM (RNA:peptide 1:100), the 2AP-(CUG)23 RNA underwent a conformational change, from double-stranded to single-stranded, with a 2.9-fold increase in the fluorescence emission of the molecule (FIG. 28B). In order to confirm the specificity of this effect, the same experiment was performed, incubating the alanine scanning peptides (payawe and ppyawa) with the 2-AP-(CUG)23 RNA at the same concentration as p10 (100 μM).
As may be observed in FIG. 29, in this example we use the 2-aminopurine assay in order to assay 4 peptides (p11, p5, p12 and p15) in addition to p10, obtained from the deconvolution of the combinatorial peptide library explained in this invention. […] The concentration used in all cases is 100 μM.

No end group written: not given here.

On to “p19: endogenously expressed peptide with 19 amino acids combining the constructs of p17 and p18 (MGGGPPYAWEGGGEWAYPP)”, for which, in series [1] (19° C. and 21° C.), the “rough eye phenotype on co-expression with CTG(480)” value is recorded as “visibly less rough”. The “length of the eye in the dorso-ventral axis vs control flies” value in series [1] (19° C. and 21° C., p-value <0.05) is “significant increase in the size of the eye”. Moreover, in series [1], the “eye phenotype on co-expression with CTG(480)” value is listed as “enhanced the toxicity of the CTG repeats”, the “phenotype of expression of peptide by itself” value was “did not cause any phenotype”, the “offspring of crossing with GMR-Gal4 UAS-CTG(480)/CyO” value is on record as “did not produce offspring without the CyO balancer” and the “transgenic lines assayed that modified the phenotype of GMR-Gal4 UAS-CTG(480) flies” value was “one of the three lines”. The “histological defects of the IFMs on co-expression with CTG(480)” value in series [2] is “suppressed the histological defects of the IFMs”.
In series [3], CUG [FAM-(CUG)23] yielded an IC50 of 900 nM.
For the molecule “p18: endogenously expressed ten amino acid peptide with the sequence of p10 inverted (retro-inverse) (MGGGEWAYPP; not fully specified)”, in series [1] (19° C. and 21° C.), the “rough eye phenotype on co-expression with CTG(480)” value is “visibly less rough”. Besides, in series [1], the “eye phenotype on co-expression with CTG(480)” value is “enhanced the toxicity of the CTG repeats”, the “phenotype of expression of peptide by itself” value is recorded as “did not cause any phenotype”, the “offspring of crossing with GMR-Gal4 UAS-CTG(480)/CyO” value is listed as “did not produce offspring without the CyO balancer” and the “transgenic lines assayed that modified the phenotype of GMR-Gal4 UAS-CTG(480) flies” value is listed as “all the lines”. In series [2], the “histological defects of the IFMs on co-expression with CTG(480)” value is “suppressed the histological defects of the IFMs”.
In series [4], CUG [2-AP-(CUG)23] returned an activity of 2.9 fold.

B1: MblZF (Mbl zinc finger) protein, amino acids 1-98 of Drosophila Muscleblind, fused to 6 Histidines and a TEV protease cleavage site (other, UniProt O16011 1-98, looked up)
chain: MANVVNMNSLLNGKDSRWLQLEVCREFQRNKCSRQDTECKFAHPPANVEVQNGKVTACYDSIKGRCNRDKPPCKYFHPPQHLKDQLLINGRNHLALKN
notes: range 1-98; The region is shared by all Mbl isoforms except MblD; also called zinc fingers of Mbl; not shown: 6 Histidines and TEV protease cleavage site from a pET-15b-derived vector
Take B1: in series [5], the binding result was “no binding”.

B2: MblZF: portion of Drosophila Mbl corresponding to the zinc fingers (amino acids 1-98), expressed in E. coli (protein)
chain: MANVVNMNSLLNGKDSRWLQLEVCREFQRNKCSRQDTECKFAHPPANVEVQNGKVTACYDSIKGRCNRDKPPCKYFHPPQHLKDQLLINGRNHLALKN
modifications: left off: small tags and cut ends
notes: portion of Drosophila Mbl corresponding to the zinc fingers (amino acids 1-98), expressed in E. coli
Turning to B2, the “ΔmP (increase in polarisation values)” value with FAM-(CUG)23 RNA (FAM-(CUG)23) amounted to 99.5. The IC50 in the series with FAM-(CUG)23 RNA (FAM-(CUG)23 6 nM, read-out: theoretical IC50 of binding curve) was found to be 900 nM. In addition, the “change of circular dichroism spectrum of CUG60” value in the series on CUG60 RNA is reported as “reducing the emission peak of RNA”. In addition, in the series on 2-AP-(CUG)23 RNA, the “changes in the fluorescence of 2-AP” value is “neither of them caused changes”.
